Measurements published in PMC11672978, “Assessing the Impact of the Leader Peptide in Protease Inhibition by the Microviridin Family of RiPPs” (Biomedicines, 2024).

Assays:
Elastase [1] = target: Elastase
Elastase [2] = target: Elastase; remark: listed apart in the source
elastase [3] = conditions: mature natural product without leader peptide; read-out: previously reported IC50 for elastase inhibition; cited from earlier work
Excerpt: Although, the IC50 value we measured is certainly an overestimation of the actual IC50 as it is less than half the concentration of the elastase used in the assay.

MdnA Δ2 (bicyclic microviridin B precursor peptide modified by MdnC only, leader peptide present, N-terminal His-tag)
IC50 of inhibition of the hydrolysis of the fluorogenic substrate MeOSuc-AAPV-AMC by elastase (20 nM elastase, 10 nM-10,000 nM MdnA Δ2, 100 mM HEPES pH 8.0, 10% DMSO, room temperature) (Elastase [1]): 840 nM

MdnA Δ3 (tricyclic, fully modified microviridin B precursor peptide with the leader peptide present, N-terminal His-tag)
IC50 of inhibition of the hydrolysis of the fluorogenic substrate MeOSuc-AAPV-AMC by elastase (20 nM elastase, 0.1 nM-100 nM MdnA Δ3, 100 mM HEPES pH 8.0, 10% DMSO, room temperature) (Elastase [2]): 8.3 nM

microviridin B
IC50 (elastase [3]): 25 nM
